Substitutions are numbered along the chain they refer to.
B1: B3: rat monoclonal anti-mutant CALR antibody from hybridoma clone B3, VH SEQ ID NO: 6, VL SEQ ID NO: 7 (antibody, listed as Rattus norvegicus, V domains shown)
VH: QVQLQQSGAELVKPGSSVKISCKASGYTFTRNFIHWIKQQPGNGLEWIGWIFPGDGDTEYNQKFNGKATLTADKSSSTAYMQLSSLTSEDSAVYFCARGNYNYEYFDYWGQGVMVTVSS
VL: DIQMTQSPASLSASLGETVSIECLASEDIYSYLAWYQQKPGKSPQLLIFAANRLQDGVPSRFSGSGSGTQFSLKISGMQPEDEGDYFCLQGSKFPYTFGPGTKLELN
B2: C6: rat monoclonal anti-mutant CALR antibody from hybridoma clone C6, VH SEQ ID NO: 8, VL SEQ ID NO: 9 (antibody, listed as Rattus norvegicus, V domains shown)
VH: QVQLQQSGAELVKPGSSVKISCKASGYTFTSYFVHWIKQQPGDGLEWIGWIYPGDGDTEYNHKFNGKSTLTADRSSSTAYMQLSSLTSEDSAVYFCARGNYYDGREVMDAWGQGASVTVSS
VL: DVVLTQTPPTLSATIGQSVSISCRSSQSLLDSDGETYLNWLLQRPGQSPQLLIYSVSNLESGVPNRFSGSGSETDFTLKISGMEAEDLGVYYCMQATHGPYTFGAGTKLELK
B3: G1: rat monoclonal anti-mutant CALR antibody from hybridoma clone G1, VH SEQ ID NO: 10, VL SEQ ID NO: 11 (antibody, listed as Rattus norvegicus, V domains shown)
VH: B2 VH with H62Q, S68A
VL: B2 VL with S48C, M83V, A96G

What follows are molecules tested on Del 52 type or Ins 5 type mutant CALR protein (assay: Verification of recognition of mutant CALR proteins (SDS-PAGE / immunoblot of culture supernatants)). Conditions: culture supernatants of UT-7/TPO cells expressing FLAG-tagged Del 52 or Ins 5 mutant CALR.
Assay type: binding, human
Protocol: UT-7/TPO cells expressing a Del 52 type or Ins 5 type mutant CALR having a FLAG-tag inserted downstream of the signal sequence at the N-terminus were cultured, and culture supernatants containing the secreted mutant CALR proteins were prepared by centrifugation (1,600 g×5 mins, 4° C.). The culture supernatants were heat-treated in the presence of SDS and a reducing agent, then resolved on a gel by SDS polyacrylamide electrophoresis, electrically transferred on a polyvinylidene difluoride (PVDF) membrane, and reacted with a TBS-T solution containing 5% skim milk at room temperature for 1 hour, followed by reaction with a 5% BSA/TBS-T solution containing a rat clone B3, C6, or G1 antibody or mouse anti-[…] tag antibody (FUJIFILM Wako Pure Chemical Corporation) at 4° C. overnight. After washing with a TBS-T solution, the reaction products were each reacted with a 5% skim milk/TBS-T solution containing a peroxidase-labeled goat anti-rat IgG antibody (Jackson Immuno Research Inc.) or a peroxidase-labeled goat anti-mouse IgG antibody (Jackson Immuno Research Inc.) at room temperature for 1 hour. After washing with a TBS-T solution, the PVDF membranes were reacted with a peroxidase luminescence reagent. The resulting signals were detected using a FUSION image pickup apparatus.

Row | Molecule | Recognition of full-length and cleaved mutant CALR proteins
1 | B1 | recognize the full-length and cleaved mutant CALR proteins
2 | B2 | recognize the full-length and cleaved mutant CALR proteins
3 | B3 | recognize the full-length and cleaved mutant CALR proteins

Source: patent US20250161441A1, “MEDICINE COMPRISING COMBINATION OF ANTI-MUTANT-CALR ANTIBODY AND ANOTHER DRUG” (JUNTENDO EDUCATIONAL FOUNDATION, priority 2022, published 2025)
